Reference: patent US20180137234A1 (University of Washington, published 2018)

Columns and labels:
[1] = target: the molecule itself; test: X-ray crystal structure of the homodimer
[2] = target: the molecule itself; test: X-ray crystal structure of the homotrimer
[3] = target: the molecule itself; test: SEC-MALS and SAXS of the original construct

B1: ank1C2_1 (designed binder)
chain: SELGKRLIEAAENGNKDRVKDLIENGADVNASDSDGRTPLHHAAENGHAEVVALLIEKGADVNAKDSDGRTPLHHAAENGHDEVVLILLLKGADVNAKDSDGRTPLHHAAENGHKRVVLVLILAGADVNTSDSDGRTPLDLAREHGNEEVVKALEKQ
notes: One subunit of a designed homodimer (C2) built from an idealized ankyrin repeat protein; also called ank1C2_G3; ANK1C2-G3
- binding result [1]: binds

B2: HR00C3_2 (designed binder)
chain: IEEVVAEMIDILAESSKKSIEELARAADNKTTEKAVAEAIEEIARLATAAIQLIEALAKNLASEEFMARAISAIAELAKKAIEAIYRLADNHTTDTFMARAIAAIANLAVTAILAIAALASNHTTEEFMARAISAIAELAKKAIEAIYRLADNHTTDKFMAAAIEAIALLATLAILAIALLASNHTTEEFMAKAISAIAELAKKAIEAIYRLADNHTSPTYIEKAIEAIEKIARKAIKAIEMLAKNITTEEYKEKAKSAIDEIREKAKEAIKRLEDNRT
notes: One subunit of a designed homotrimer (C3) built from a de novo designed repeat protein
- binding result [2]: binds

B3: ank3C2_1 (designed binder)
chain: SELGKRLIEAAENGNKDRVKDLLENGADVNASDSDGKTPLHLAAENGHAKVVLLLLEQGADPNAKDSDGKTPLHLAAENGHAVVVALLLMHGADPNAKDSDGKTPLHLAAENGHEEVVILLLAMGADPNTSDSDGRTPLDLAREHGNEEVVKVLEDH
notes: One subunit of a designed homodimer (C2) built from an idealized ankyrin repeat protein; It was expressed in E. coli with an N- or C-terminal (His)6 tag
- binding result [1]: binds

B4: 1na0C3_3 (designed binder)
chain: NLAEKMYKAGNAMYRKGQYTIAIIAYTLALLKDPNNAEAWYNLGNAAYKKGEYDEAIEAYQKALELDPNNAEAWYNLGNAYYKQGDYDEAIEYYQKALELDPNNAEAKQNLGNAKQKQG
notes: One subunit of a designed homotrimer (C3) built from a consensus designed tpr protein
- binding result [2]: binds

B5: HR04C4_1 (designed binder)
chain: DECEEKARRVAEKVERLKRSGTSEDEIAEEVAREISEVIRTLKESGSSYEVICECVARIVAEIVEALKRSGTSAVEIAKIVARVISEVIRTLKESGSSYEVICECVARIVAEIVEALKRSGTSAAIIALIVALVISEVIRTLKESGSSFEVILECVIRIVLEIIEALKRSGTSEQDVMLIVMAVLLVVLATLQLSGS
notes: One subunit of a designed homotetramer (C4); also called tj10C4_G1
- binding result [3]: binds
